Reference: patent US20180271998A1 (MERRIMACK PHARMACEUTICALS, published 2018)

Key:
[1] = target: T1, Recombinant, Human EphA2 with C-terminal hexahistidine appended (human, UniProt P29317 25-534); experiment: BLI (Octet Red96), EphA2-His on anti-His5 sensors, liposomes with inserted conjugate
T1 construct: Captured on anti-His5 sensors; also called his-tagged recombinant, human EphA
Procedure: (§1) The purified liposomes were assayed for EphA2 binding strength by FortéBIO® Octet® Red96 system (Pall) in PBS at 25 μM liposome phospholipid using anti-His5 sensors coated with recombinant human EphA2 with C-terminal hexahistidine (SEQ ID NO:47). The slope of the association curve from 3-20 sec was determined and compared to the slope observed for liposomes with inserted conjugate of the wild type Fab.

[2] = target: T1, Recombinant, Human EphA2 with …; experiment: BLI (Octet Red 96), EphA2-His on anti-His5 sensors, Fab-PEG-DSPE conjugate
Procedure: (§2) The Fab-PEG-DSPE conjugates were assayed for EphA2 binding strength using the FortéBIO® Octet® Red 96 system (Pall Corporation) to determine whether conjugation or engineering of the Fab affected binding activity. […] Anti-His5 sensors were first coated with his-tagged recombinant, human EphA (SEQ ID NO:47) at a concentration of 10 μg/ml protein in PBS. The sensors were then incubated in 4 μg/ml of Fab-PEG-DSPE conjugate in PBS. The slope of an association curve between 2-10 seconds was determined and compared across the variants and to the reference conjugate, Fab 11-PEG-PE, which is the anti-EphA2 antibody with wild-type disulfide pairing.

[3] = target: T1, Recombinant, Human EphA2 with …; experiment: BLI (Octet Red 96), EphA2-His on anti-His5 sensors, 4 ug/ml Fab-PEG-DSPE conjugate, slope of association curve 2-10 s relative to Fab 11 conjugate
Procedure: as §2

[4] = target: T1, Recombinant, Human EphA2 with …; experiment: BLI (Octet Red96), EphA2-His on anti-His5 sensors, doxorubicin liposomes with inserted Fab-PEG-DSPE conjugate at 25 uM phospholipid, slope of association curve 3-20 s relative to Fab 11 liposomes
Procedure: as §1

T1 sequence (P29317 other isoform, or with tags, fused parts or gaps limits assumed): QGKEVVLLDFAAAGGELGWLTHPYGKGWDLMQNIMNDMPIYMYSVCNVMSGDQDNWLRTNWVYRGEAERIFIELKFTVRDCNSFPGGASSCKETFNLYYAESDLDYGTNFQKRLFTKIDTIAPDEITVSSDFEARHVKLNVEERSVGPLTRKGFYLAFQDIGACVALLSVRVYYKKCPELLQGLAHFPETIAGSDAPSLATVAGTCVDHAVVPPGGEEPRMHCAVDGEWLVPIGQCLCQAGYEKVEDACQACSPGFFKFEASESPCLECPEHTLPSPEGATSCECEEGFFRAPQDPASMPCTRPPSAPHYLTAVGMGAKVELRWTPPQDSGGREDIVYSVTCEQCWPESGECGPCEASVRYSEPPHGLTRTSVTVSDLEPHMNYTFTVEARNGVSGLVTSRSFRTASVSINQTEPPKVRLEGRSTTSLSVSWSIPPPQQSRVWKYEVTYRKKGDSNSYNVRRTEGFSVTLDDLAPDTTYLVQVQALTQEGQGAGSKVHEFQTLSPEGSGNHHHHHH

Binder	EphA2 binding strength compared to control liposomes [1] [%]	binding strength compared to wild-type protein conjugate [2] [%]	Binding strength, % of wild type conjugate [3]	Fab-liposome binding strength, % of control [4]
anti-EphA2 Fab 12 (IgG1 G44C, C233S heavy chain; lambda G100C, C214S light chain), Fab-PEG-DSPE conjugate (Fab, V domains shown, mal-PEG(2000)-DSPE linker conjugated to the C-terminal cysteine of the heavy chain (Cys in DKTHTCAA)) VH: QVQLVQSGGGLVQPGGSLRLSCAASGFTFSSYAMHWVRQAPGKCLEWVTVISPDGHNTYYADSVKGRFTISRDNSKNTLYLQMNSLRAEDTAVYYCARASVGATGPFDIWGQGTLVTVSS VL: SSELTQPPSVSVAPGQTVTITCQGDSLRSYYASWYQQKPGTAPKLLIYGENNRPSGVPDRFSGSSSGTSASLTITGAQAEDEADYYCNSRDSSGTHLTVFGCGTKLTVLG	> 80	75	108 % of wild type conjugate	109 % of control
anti-EphA2 Fab 13 (IgG1 F174C, C233S heavy chain; lambda S176C, C214S light chain), Fab-PEG-DSPE conjugate (Fab, V domains shown, mal-PEG(2000)-DSPE linker conjugated to the C-terminal cysteine of the heavy chain (Cys in DKTHTCAA)) VH: QVQLVQSGGGLVQPGGSLRLSCAASGFTFSSYAMHWVRQAPGKGLEWVTVISPDGHNTYYADSVKGRFTISRDNSKNTLYLQMNSLRAEDTAVYYCARASVGATGPFDIWGQGTLVTVSS VL: SSELTQPPSVSVAPGQTVTITCQGDSLRSYYASWYQQKPGTAPKLLIYGENNRPSGVPDRFSGSSSGTSASLTITGAQAEDEADYYCNSRDSSGTHLTVFGGGTKLTVLG	> 80	75	96.9 % of wild type conjugate	96.5 % of control
anti-EphA2 Fab 18 (IgG1 G44L, H172E, F174C, C233S heavy chain; lambda G100L, T162D, S176C, C214S light chain), Fab-PEG-DSPE conjugate (Fab, V domains shown, mal-PEG(2000)-DSPE linker conjugated to the C-terminal cysteine of the heavy chain (Cys in DKTHTCAA)) VH: QVQLVQSGGGLVQPGGSLRLSCAASGFTFSSYAMHWVRQAPGKLLEWVTVISPDGHNTYYADSVKGRFTISRDNSKNTLYLQMNSLRAEDTAVYYCARASVGATGPFDIWGQGTLVTVSS VL: SSELTQPPSVSVAPGQTVTITCQGDSLRSYYASWYQQKPGTAPKLLIYGENNRPSGVPDRFSGSSSGTSASLTITGAQAEDEADYYCNSRDSSGTHLTVFGLGTKLTVLG	> 80	75	75.5 % of wild type conjugate	99.6 % of control
anti-EphA2 Fab 15 (IgG1 H172E, F174C, C233S heavy chain; lambda T162D, S176C, C214S light chain), Fab-PEG-DSPE conjugate (Fab, V domains shown, mal-PEG(2000)-DSPE linker conjugated to the C-terminal cysteine of the heavy chain (Cys in DKTHTCAA)) VH: QVQLVQSGGGLVQPGGSLRLSCAASGFTFSSYAMHWVRQAPGKGLEWVTVISPDGHNTYYADSVKGRFTISRDNSKNTLYLQMNSLRAEDTAVYYCARASVGATGPFDIWGQGTLVTVSS VL: SSELTQPPSVSVAPGQTVTITCQGDSLRSYYASWYQQKPGTAPKLLIYGENNRPSGVPDRFSGSSSGTSASLTITGAQAEDEADYYCNSRDSSGTHLTVFGGGTKLTVLG	> 80	75	86 % of wild type conjugate	102 % of control
anti-EphA2 Fab 19 (IgG1 G44L, H172F, F174C, C233S heavy chain; lambda G100L, T162L, S174V, S176C, C214S light chain), Fab-PEG-DSPE conjugate (Fab, V domains shown, mal-PEG(2000)-DSPE linker conjugated to the C-terminal cysteine of the heavy chain (Cys in DKTHTCAA)) VH: QVQLVQSGGGLVQPGGSLRLSCAASGFTFSSYAMHWVRQAPGKLLEWVTVISPDGHNTYYADSVKGRFTISRDNSKNTLYLQMNSLRAEDTAVYYCARASVGATGPFDIWGQGTLVTVSS VL: SSELTQPPSVSVAPGQTVTITCQGDSLRSYYASWYQQKPGTAPKLLIYGENNRPSGVPDRFSGSSSGTSASLTITGAQAEDEADYYCNSRDSSGTHLTVFGLGTKLTVLG	> 80	75	96.8 % of wild type conjugate	83.3 % of control
anti-EphA2 Fab 14 (IgG1 G44C, F174C, C233S heavy chain; lambda G100C, S176C, C214S light chain), Fab-PEG-DSPE conjugate (Fab, V domains shown, mal-PEG(2000)-DSPE linker conjugated to the C-terminal cysteine of the heavy chain (Cys in DKTHTCAA)) VH: QVQLVQSGGGLVQPGGSLRLSCAASGFTFSSYAMHWVRQAPGKCLEWVTVISPDGHNTYYADSVKGRFTISRDNSKNTLYLQMNSLRAEDTAVYYCARASVGATGPFDIWGQGTLVTVSS VL: SSELTQPPSVSVAPGQTVTITCQGDSLRSYYASWYQQKPGTAPKLLIYGENNRPSGVPDRFSGSSSGTSASLTITGAQAEDEADYYCNSRDSSGTHLTVFGCGTKLTVLG	> 80	75	105 % of wild type conjugate	120 % of control
anti-EphA2 Fab 16 (IgG1 H172F, F174C, C233S heavy chain; lambda T162L, S174V, S176C, C214S light chain), Fab-PEG-DSPE conjugate (Fab, V domains shown, mal-PEG(2000)-DSPE linker conjugated to the C-terminal cysteine of the heavy chain (Cys in DKTHTCAA)) VH: QVQLVQSGGGLVQPGGSLRLSCAASGFTFSSYAMHWVRQAPGKGLEWVTVISPDGHNTYYADSVKGRFTISRDNSKNTLYLQMNSLRAEDTAVYYCARASVGATGPFDIWGQGTLVTVSS VL: SSELTQPPSVSVAPGQTVTITCQGDSLRSYYASWYQQKPGTAPKLLIYGENNRPSGVPDRFSGSSSGTSASLTITGAQAEDEADYYCNSRDSSGTHLTVFGGGTKLTVLG	> 80	75	85 % of wild type conjugate	89.3 % of control
anti-EphA2 Fab 17 (IgG1 G44L, F174C, C233S heavy chain; lambda G100L, S176C, C214S light chain), Fab-PEG-DSPE conjugate (Fab, V domains shown, mal-PEG(2000)-DSPE linker conjugated to the C-terminal cysteine of the heavy chain (Cys in DKTHTCAA)) VH: QVQLVQSGGGLVQPGGSLRLSCAASGFTFSSYAMHWVRQAPGKLLEWVTVISPDGHNTYYADSVKGRFTISRDNSKNTLYLQMNSLRAEDTAVYYCARASVGATGPFDIWGQGTLVTVSS VL: SSELTQPPSVSVAPGQTVTITCQGDSLRSYYASWYQQKPGTAPKLLIYGENNRPSGVPDRFSGSSSGTSASLTITGAQAEDEADYYCNSRDSSGTHLTVFGLGTKLTVLG	> 80	75	89.7 % of wild type conjugate	102 % of control
